T1: recombinant human IL-6R sR (R&D systems) (human, UniProt P08887 20-358)
T1 construct: Bought soluble receptor; also called rhIL-6sR; rhIL-s6R
T1 sequence (looked up): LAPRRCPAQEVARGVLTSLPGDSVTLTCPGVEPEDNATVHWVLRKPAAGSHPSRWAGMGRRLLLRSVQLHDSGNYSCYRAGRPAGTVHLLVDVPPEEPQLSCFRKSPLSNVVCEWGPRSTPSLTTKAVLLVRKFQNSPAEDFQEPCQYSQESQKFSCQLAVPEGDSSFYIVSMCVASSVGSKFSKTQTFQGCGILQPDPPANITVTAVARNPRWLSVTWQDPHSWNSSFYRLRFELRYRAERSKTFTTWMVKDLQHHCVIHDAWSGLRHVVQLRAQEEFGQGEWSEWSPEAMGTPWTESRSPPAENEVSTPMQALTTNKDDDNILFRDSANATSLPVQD


target: T1, recombinant human IL-6R sR (R&D systems); assay: SPR (Biacore T100), antibody captured on Protein A, rhIL-6sR as analyte, 25 C
Protocol: The antigen-antibody interaction was measured by immobilizing 4,400 to 5,000 RU of rec-Protein A (Zymed) immobilized onto a sensor chip by the amine coupling method, binding various antibodies onto the chip, and then flowing the antigen over the chip as an analyte. For the antigen, various concentrations of rhIL-6sR were used. All measurements were carried out at 25° C. The kinetic parameters, association rate constant kₐ (1/Ms) and dissociation rate constant kd (1/s) were calculated from the sensorgrams obtained by measurement. Then, KD (M) was determined based on the rate constants. The respective parameters were determined using Biacore T100 Evaluation Software (Biacore).

Binder	Kd [nM]	koff [s⁻¹]	kon [M⁻¹ s⁻¹]
RDC-5 (antibody, V domains shown, also called RDC-5H/L(WT)) VH: QVQLQESGPGLVRPSQTLSLTCTVSGYSITSDHAWSWVRQPPGRGLEWIGYISYSGITTYNPSLKSRVTMLRDTSKNQFSLRLSSVTAADTAVYYCARVLARITAMDYWGQGSLVTVSS VL: DIQMTQSPSSLSASVGDRVTITCRASQDISSYLNWYQQKPGKAPKLLIYYTSRLHSGVPSRFSGSGSGTDFTFTISSLQPEDIATYYCQQGNTLPYTFGQGTKVEIK	0.022	2.8e-05	1.2e+06
RDC-7 (antibody, V domains shown, also called RDC-7H/L(WT)) VH: QVQLQESGPGLVRPSQTLSLTCTVSGYSITSDHAWSWVRQPPGRGLEWIGYISYSGITTYNPSLKSRVTMLRDTSKNQFSLRLSSVTAADTAVYYCARTLARITAMDYWGQGSLVTVSS VL: DIQMTQSPSSLSASVGDRVTITCRASQDISSYLNWYQQKPGKAPKLLIYYTSRLHSGVPSRFSGSGSGTDFTFTISSLQPEDIATYYCQQGNTLPYTFGQGTKVEIK	0.038	4.2e-05	1.1e+06
RDC-6 (antibody, V domains shown, also called RDC-6H/L(WT)) VH: QVQLQESGPGLVRPSQTLSLTCTVSGYSITSDHAWSWVRQPPGRGLEWIGYISYSGITTYNPSLKSRVTMLRDTSKNQFSLRLSSVTAADTAVYYCARILARITAMDYWGQGSLVTVSS VL: DIQMTQSPSSLSASVGDRVTITCRASQDISSYLNWYQQKPGKAPKLLIYYTSRLHSGVPSRFSGSGSGTDFTFTISSLQPEDIATYYCQQGNTLPYTFGQGTKVEIK	0.029	3.5e-05	1.2e+06
RDC-3 (antibody, V domains shown, also called RDC-3H/L(WT)) VH: QVQLQESGPGLVRPSQTLSLTCTVSGYSITSDHAWSWVRQPPGRGLEWIGYISYSGITTYNPSLKSRVTMLRDTSKNQFSLRLSSVTAADTAVYYCARILARATAMDYWGQGSLVTVSS VL: DIQMTQSPSSLSASVGDRVTITCRASQDISSYLNWYQQKPGKAPKLLIYYTSRLHSGVPSRFSGSGSGTDFTFTISSLQPEDIATYYCQQGNTLPYTFGQGTKVEIK	0.037	3.7e-05	1e+06
RD-28 (antibody, V domains shown) VH: QVQLQESGPGLVRPSQTLSLTCTVSGYSITSDHAWSWVRQPPGRGLEWIGYISYSGITTYNPSLKSRVTMLRDTSKNQFSLRLSSVTAADTAVYYCARSLARTTAMDYWGQGSLVTVSS VL: DIQMTQSPSSLSASVGDRVTITCRASQDISSYLNWYQQKPGKAPKLLIYYTSRLHSGVPSRFSGSGSGTDFTFTISSLQPEDIATYYCGQGNTLPYTFGQGTKVEIK	0.12	0.00011	940000

Results, then the binder that gave them:

Kd [nM]	koff [s⁻¹]	kon [M⁻¹ s⁻¹]	Binder
0.027	2.9e-05	1.1e+06	RDC-4 (antibody, V domains shown, also called RDC-4H/L(WT)) VH: QVQLQESGPGLVRPSQTLSLTCTVSGYSITSDHAWSWVRQPPGRGLEWIGYISYSGITTYNPSLKSRVTMLRDTSKNQFSLRLSSVTAADTAVYYCARTLARATAMDYWGQGSLVTVSS VL: DIQMTQSPSSLSASVGDRVTITCRASQDISSYLNWYQQKPGKAPKLLIYYTSRLHSGVPSRFSGSGSGTDFTFTISSLQPEDIATYYCQQGNTLPYTFGQGTKVEIK
0.022	2.5e-05	1.1e+06	RDC-2 (antibody, V domains shown, also called RDC-2H/L(WT)) VH: QVQLQESGPGLVRPSQTLSLTCTVSGYSITSDHAWSWVRQPPGRGLEWIGYISYSGITTYNPSLKSRVTMLRDTSKNQFSLRLSSVTAADTAVYYCARVLARATAMDYWGQGSLVTVSS VL: DIQMTQSPSSLSASVGDRVTITCRASQDISSYLNWYQQKPGKAPKLLIYYTSRLHSGVPSRFSGSGSGTDFTFTISSLQPEDIATYYCQQGNTLPYTFGQGTKVEIK
0.025	3.6e-05	1.4e+06	RDC-8 (antibody, V domains shown, also called RDC-8H/L(WT)) VH: QVQLQESGPGLVRPSQTLSLTCTVSGYSITSDHAWSWVRQPPGRGLEWIGYISYSGITTYNPSLKSRVTMLRDTSKNQFSLRLSSVTAADTAVYYCARLLARITAMDYWGQGSLVTVSS VL: DIQMTQSPSSLSASVGDRVTITCRASQDISSYLNWYQQKPGKAPKLLIYYTSRLHSGVPSRFSGSGSGTDFTFTISSLQPEDIATYYCQQGNTLPYTFGQGTKVEIK

Reference: patent US20150284465A1 (Chugai, published 2015)
